The test concerns the target T1, Aβ plaques (Homo sapiens, UniProt P05067).
T1 construct: have an increased Aβ 1-42 expression and plaque formation; from tissue; host or cells: frontal brain slices of transgenic Tg2576 mice aged 10 to 11 months
Put plainly: Ex vivo histological staining of plaques in frontal brain slices of transgenic Tg2576 mice with FITC-labelled D-peptides (fluorescence microscopy, Congo red control). The format is binding. The note with it: frontal brain slices (cortex) of Tg2576 mice aged 10 to 11 months; for region of the plaques stained (more intensely): FITC-labelled peptide. From the text:
The binding properties of the available peptides to Aβ plaques were investigated. For staining frontal brain slices, use was made of preparations of transgenic Tg2576 mice aged from 10 to 11 months, which due to the human APP gene bearing the Swedish mutation have an increased Aβ 1-42 expression and plaque formation. In these mice, it was also possible to detect AβpE3-x as a plaque constituent.
For the tests, the peptides were synthetically produced and labelled by a commercial supplier, A test was then carried out, ex vivo, to determine the regions of the plaques to which binding had mainly taken place. It must be assumed here that Aβ plaques consist of different Aβ species, such as, for example, Aβ1-40, 1-42 and AβpE3-x.
All the peptides are combined with fluorescein isothiocyanate (FITC) for detection by means of fluorescence microscopy.
As a further control, the same tests were carried out after Congo red staining, which served to verify the plaque structures (bottom image in each case). It must be assumed that the plaques are composed of different Aβ isoforms (Aβ 1-40, 1-42, AβpE3-x). Slices from wild-type animals without plaque formation were also treated. In these tests, no Congo red or fluorescein fluorescence could be detected (data not shown).

Square brackets hold non-standard residues; d marks the D form. Ends that are not written are not given here.

T1 sequence (P05067 672-713 limits assumed): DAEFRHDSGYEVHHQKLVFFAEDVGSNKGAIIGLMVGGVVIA

In the case of “AGERLKFIDEHV ([dA]G[dE][dR][dL][dK][dF][dI][dD][dE][dH][dV]) [D6]”, the “region of the plaques stained (more intensely)” value (from here on “region of the plaques stained”) was “ring-shaped structures around the inner core of the plaques were stained more intensely”; the “type of plaques stained by the peptide” value was “only plaques having a relatively dense structure, consisting of Aβ fibrils, were stained, but not small and diffuse plaques”.

As to “KMEHPNHPPPQR ([dK][dM][dE][dH][dP][dN][dH][dP][dP][dP][dQ][dR]) [D4, dodecameric D-peptide selected by mirror image phage display against aggregation-nucleus-free AβpE3-x]”, the “region of the plaques stained” value was “ring-shaped structures around the inner core of the plaques were stained more intensely”; the “type of plaques stained by the peptide” value was “only plaques having a relatively dense structure, consisting of Aβ fibrils, were stained, but not small and diffuse plaques”.

With “HTRFEYYVYHMS ([dH][dT][dR][dF][dE][dY][dY][dV][dY][dH][dM][dS]) [D7]”, the “region of the plaques stained” value is recorded as “at the inner core of the plaques” and the “type of plaques stained by the peptide” value is listed as “stained only dense structures”.

As for “NGAPNKIPRDRE ([dN]G[dA][dP][dN][dK][dI][dP][dR][dD][dR][dE]) [D5, dodecameric D-peptide selected by mirror image phage display against aggregation-nucleus-free AβpE3-x]”, the “region of the plaques stained” value was “ring-shaped structures around the inner core of the plaques were stained more intensely”; the “type of plaques stained by the peptide” value was “only plaques having a relatively dense structure, consisting of Aβ fibrils, were stained, but not small and diffuse plaques”.

Source of the values: US9611296B2, “Peptides that bind to amino-truncated amyloid-beta-peptide and use of said peptides” (FORSCHUNGSZENTRUM JUELICH GMBH, priority 2012, dated 2017).
